Values of other authors, collected in publication PMC6707866.
pKd: −log10 of the molar value.

Molecular target: Bag3 (Homo sapiens) (UniProt O95817)
Chain of UniProt O95817 (O95817 2-575): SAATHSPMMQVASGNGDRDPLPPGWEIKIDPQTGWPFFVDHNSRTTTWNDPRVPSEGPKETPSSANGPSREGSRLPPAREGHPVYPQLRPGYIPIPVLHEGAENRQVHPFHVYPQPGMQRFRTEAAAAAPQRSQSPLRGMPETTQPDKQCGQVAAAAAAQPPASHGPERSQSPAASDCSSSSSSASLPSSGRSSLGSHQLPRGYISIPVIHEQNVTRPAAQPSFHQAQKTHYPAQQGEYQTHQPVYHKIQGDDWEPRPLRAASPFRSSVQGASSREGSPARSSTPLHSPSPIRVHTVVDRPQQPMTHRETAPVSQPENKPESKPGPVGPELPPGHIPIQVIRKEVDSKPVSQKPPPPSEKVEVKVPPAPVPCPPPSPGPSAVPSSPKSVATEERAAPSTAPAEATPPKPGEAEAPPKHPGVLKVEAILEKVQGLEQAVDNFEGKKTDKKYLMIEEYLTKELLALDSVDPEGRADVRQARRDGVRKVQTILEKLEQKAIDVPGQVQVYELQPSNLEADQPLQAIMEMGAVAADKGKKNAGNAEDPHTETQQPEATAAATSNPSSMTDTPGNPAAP

pKd: 7.60
Substance: Hsp70 (from UniProt P0DMV8)
